The source of these data is US20240010750A1 (Bayer, published 2024).

A word on the Kd: it is the constant that tells how readily two partners part at equilibrium. A low value points to higher affinity. Usually EC50 (read off the curve) stands for the concentration giving half of the maximal effect. Higher therefore signals a less potent agent.

The target of test [1] is T1, A2AP peptides with the consensus motif SRMSLSS (human).
T1 construct: Consensus motif shared by the reacting peptides of the PEPperCHIP arrays (linear 15-mers; cyclic 7-, 10- and 13-mers closed by a thioether)
T1 peptide: SRMSLSS
The experiment in a line: PEPperCHIP peptide microarray, antibody at 10 µg/ml. Here is the method:
Antibodies were incubated on the Microarray in concentrations of 1 μg/ml, 10 μg/ml and 100 μg/ml in incubation buffer. Incubation time was 16 h at 4° C. and shaking at 140 rpm.
As secondary antibody the goat anti-human IgG (Fc) DyLight680 was used at a dilution of 1:5000. This detection antibody was incubated on the Microarray at 45 min staining in incubation buffer at room temperature.
Microarray image analysis was done with PepSlide® Analyzer. A software algorithm was used to break down fluorescence intensities of each spot into raw, foreground and background signal, and calculated averaged median foreground intensities and spot-to-spot deviations of spot duplicates. Based on averaged median foreground intensities, an intensity map was generated and interactions in the peptide map highlighted by an intensity color code with red for high and white for low spot intensities. Averaged spot intensities of the assays were plotted with the antibody samples against the antigen sequence from the N- to the C-terminus to visualize overall spot intensities and signal-to-noise ratios. The intensity plots were correlated with peptide and intensity maps as well as with visual inspection of the microarray scans to identify the epitopes of the tested antibodies.

Test [2] concerns the target T2, human alpha2-Antiplasmin (human, UniProt P08697 40-491).
T2 construct: Bought (antibodies online, ABIN2544306); also called human A2AP; a2AP
T2 sequence: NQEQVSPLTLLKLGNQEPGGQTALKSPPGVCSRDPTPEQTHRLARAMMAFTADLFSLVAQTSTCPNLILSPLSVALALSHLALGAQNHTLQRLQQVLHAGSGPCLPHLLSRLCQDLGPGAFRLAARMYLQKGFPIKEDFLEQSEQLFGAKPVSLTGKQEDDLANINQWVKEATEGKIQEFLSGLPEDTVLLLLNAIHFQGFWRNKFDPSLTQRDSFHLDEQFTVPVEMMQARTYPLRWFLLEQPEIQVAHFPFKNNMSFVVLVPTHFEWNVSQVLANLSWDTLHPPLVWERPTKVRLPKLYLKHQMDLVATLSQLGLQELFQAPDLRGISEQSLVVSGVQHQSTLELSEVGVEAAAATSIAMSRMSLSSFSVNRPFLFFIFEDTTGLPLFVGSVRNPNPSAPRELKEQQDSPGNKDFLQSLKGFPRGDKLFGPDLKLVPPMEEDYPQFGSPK
The experiment in a line: SPR Biacore T200, antibody captured on protein G chip, A2AP as analyte, 25 C.

In test [3] the target is T3, rabbit alpha2-Antiplasmin (rabbit (Oryctolagus cuniculus)).
T3 construct: Made in house in HEK293 cells, purified by Ni-IMAC and SEC (a His tag is implied but not described); also called rabbit A2AP; Oryctolagus cuniculus A2AP
T3 chain: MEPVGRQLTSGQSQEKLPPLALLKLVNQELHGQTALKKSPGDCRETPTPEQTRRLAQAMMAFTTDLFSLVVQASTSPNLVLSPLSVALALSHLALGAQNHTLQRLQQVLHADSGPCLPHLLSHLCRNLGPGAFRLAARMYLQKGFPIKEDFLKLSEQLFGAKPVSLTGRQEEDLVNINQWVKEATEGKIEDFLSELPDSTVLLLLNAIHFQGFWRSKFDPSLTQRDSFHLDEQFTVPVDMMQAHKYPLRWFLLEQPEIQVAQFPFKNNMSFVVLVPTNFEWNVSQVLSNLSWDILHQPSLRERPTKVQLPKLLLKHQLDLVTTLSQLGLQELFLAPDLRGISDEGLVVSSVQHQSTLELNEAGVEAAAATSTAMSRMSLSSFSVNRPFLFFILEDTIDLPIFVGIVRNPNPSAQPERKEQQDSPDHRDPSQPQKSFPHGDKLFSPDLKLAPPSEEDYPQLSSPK
The description is as above.

In test [4] the target is T2, human alpha2-Antiplasmin. The experiment in a line: ELISA (Example 3): antigen coated at 1 ug/ml, detection with anti-human lambda light chain-peroxidase and Amplex Red, RFU [left panel]. How it is done: Binding activities towards human alpha2-Antiplasmin are shown in the left panel, towards rabbit alpha2-Antiplasmin are shown in the right panel of this figure. The binding activities were calculated as EC50 in M values.
A standard ELISA format was used for analyzing the binding affinity of Fabs of this invention to human and rabbit alpha-2-Antiplasmin, respectively. Antigens were coated to black 384 well Maxisorp microtiter plates (Nunc; catalogue number 460518), diluted to a concentration of 1 μg/ml in 1× Coating Buffer (Candor Bioscience; catalogue number 121125). Plates were incubated overnight at 4° C. After overnight incubation, plates were washed 2× with 50 μl/well using PBS+0.05% Tween 20. Following this, 50 μl/well of blocking buffer (Smart Block; Candor Bioscience; catalogue number 113500) was added and the plates were incubated for 1 hour at room temperature. Afterwards, plates were washed for 3× using […] PBS+0.05% Tween 20 buffer. Fabs of this invention were added at different concentrations in a final volume of 30 μl/well. Plates were incubated for 1 hour at room temperature. Following this incubation step, plates were washed for 3× using 50 μl/well of a PBS+0.05% Tween 20 buffer. […]
For measurement, the Infinite f500 reader (Tecan) was used.
For orientation: An ELISA detects its analyte on a solid surface through an enzyme-linked reagent.

B1: TPP-12387 hIgG1 (antibody, V domains shown)
VH: EVQLLESGGGLVQPGGSLRLSCAASGFTFDDYAMSWVRQAPGKGLEWVSAIGTGGGTYYADSVKGRFTISRDNSKNTLYLQMNSLRAEDTAVYYCAREYYDSSGYYHLDYWGQGTLVTVSS
VL: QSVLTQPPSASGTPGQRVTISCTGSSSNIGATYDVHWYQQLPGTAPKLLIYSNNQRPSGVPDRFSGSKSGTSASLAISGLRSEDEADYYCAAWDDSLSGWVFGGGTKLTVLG
notes: Fully human IgG1 lambda from the BioInvent n-CoDeR Fab lambda library; parental lead antibody
On to B1, for which, in test [1], the “signal-to-noise-ratio at 10 µg/ml” value came out at 2260. For the same molecule, the Kd with human alpha2-Antiplasmin [2] is 180 nM; in test [3] it was 43 nM. Further, the “EC50 (read off the curve)” value with human alpha2-Antiplasmin [4] was around 100 nM.
